Assay results as given in PMC5398546.

How the values were obtained:
[1] = biological target: wild-type human serotonin 5HT1B receptor (residues 34-390) with C-terminal His10 (human) (UniProt P28222); assay: fluorescent saturation binding assay (FSBA); DDM-solubilised donitriptan-bound His-tagged 5HT1BR immobilised on Ni2+-coated 96-well plate; GFP-mini-G protein 0 to 5 μM, 90 min on ice; specific binding = minus the GFP-mini-Gs condition; apparent KD, one-site fit
[2] = biological target: C-terminally truncated human A2AR (residues 1-317, N154A, C-terminal His10) (human) (UniProt P29274); assay: fluorescent saturation binding assay (FSBA); DDM-solubilised His-tagged β1AR or A2AR immobilised on Ni2+-coated 96-well plate; GFP-mini-Gs 0 to 2.8 μM, 90 min on ice; specific binding = agonist minus inverse agonist condition; apparent KD, one-site fit
Sequence of C-terminally truncated human A2AR (residues 1-317, N154A, C-terminal His10) (human) (P29274 1-317 N154A): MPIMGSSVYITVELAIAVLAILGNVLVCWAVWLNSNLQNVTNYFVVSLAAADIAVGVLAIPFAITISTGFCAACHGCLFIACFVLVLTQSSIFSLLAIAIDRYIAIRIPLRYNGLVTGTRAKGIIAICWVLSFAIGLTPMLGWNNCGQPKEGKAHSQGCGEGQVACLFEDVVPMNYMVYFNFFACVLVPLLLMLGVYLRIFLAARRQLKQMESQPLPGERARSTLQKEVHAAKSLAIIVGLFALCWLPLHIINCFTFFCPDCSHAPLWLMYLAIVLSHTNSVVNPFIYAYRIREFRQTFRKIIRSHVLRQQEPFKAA

Sequence of wild-type human serotonin 5HT1B receptor (residues 34-390) with C-terminal His10 (human) (P28222 34-390): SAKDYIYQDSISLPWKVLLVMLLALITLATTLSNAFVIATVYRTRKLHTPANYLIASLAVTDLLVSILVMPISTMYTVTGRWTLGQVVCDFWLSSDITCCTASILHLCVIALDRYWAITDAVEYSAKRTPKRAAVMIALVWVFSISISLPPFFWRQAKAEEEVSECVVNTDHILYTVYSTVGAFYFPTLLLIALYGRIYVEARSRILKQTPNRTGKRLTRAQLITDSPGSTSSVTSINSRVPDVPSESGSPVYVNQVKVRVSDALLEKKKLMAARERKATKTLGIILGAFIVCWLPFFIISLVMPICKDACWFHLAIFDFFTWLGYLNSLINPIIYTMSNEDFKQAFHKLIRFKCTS

| Substance | Kd [1] [nM] | Kd [2] [nM] |
| --- | --- | --- |
| GFP-mini-Go1 (construct 12) (domain or fragment) | 180 | – |
| GFP-mini-Gs (domain or fragment) | – | 430 |
| GFP-mini-Gs/i1 (construct 43) (domain or fragment) | 390 | – |
